From paper PMC8543943, “Structure-guided steric hindrance engineering of Bacillus badius phenylalanine dehydrogenase for efficient L-homophenylalanine synthesis” (Biotechnology for Biofuels, 2021) come the findings set out here.

Assay in all cases: purified protein
Type in all cases: biochemical, Pseudobacillus badius

Substrate in data set [1]: O=C(O)C(=O)Cc1ccccc1
The settings on record: reductive amination, 2 M NH4Cl/NH4OH pH 9.5, 0.5 mM NADH, 30 °C.

Substrate in data set [2]: NC(=O)C1=CN([C@@H]2O[C@H](COP(=O)(O)OP(=O)(O)OC[C@H]3O[C@@H](n4cnc5c(N)ncnc54)[C@H](O)[C@@H]3O)[C@@H](O)[C@H]2O)C=CC1
The settings on record: reductive amination, 2 M NH4Cl/NH4OH pH 9.5, 20 mM 2-OPBA, 30 °C, varied: cofactor.

Substrate in data set [3]: O=C(O)C(=O)CCc1ccccc1
The conditions noted are these: reductive amination, 2 M NH4Cl/NH4OH pH 9.5, 0.5 mM NADH, 30 °C.

B1: BbPheDH (Pseudobacillus badius) (protein)
chain: SLVEKTSIIKDFTLFEKMSEHEQVVFCNDPATGLRAIIAIHDTTLGPALGGCRMQPYNSVEEALEDALRLSKGMTYKCAASDVDFGGGKAVIIGDPQKDKSPELFRAFGQFVDSLGGRFYTGTDMGTNMEDFIHAMKETNCIVGVPEAYGGGGDSSIPTAMGVLYGIKATNKMLFGKDDLGGVTYAIQGLGKVGYKVAEGLLEEGAHLFVTDINEQTLEAIQEKAKTTSGSVTVVASDEIYSQEADVFVPCAFGGVVNDETMKQFKVKAIAGSANNQLLTEDHGRHLADKGILYAPDYIVNSGGLIQVADELYEVNKERVLAKTKHIYDAILEVYQQAELDQITTMEAANRMCEQRMAARGRRNSFFTSSVKPKWDIRN
notes: His-tagged, full length, pET-28a (+), expressed in E. coli BL21 (DE3), Ni-NTA purified
Consider B1, for which, in “purified protein [1]”, the Michaelis-Menten constant (Km) is 300 ± 40 µM, the kcat was 115 ± 6 s⁻¹ and the kcat/Km amounted to 370000 ± 45000 M⁻¹ s⁻¹. In addition, in “purified protein [2]”, the Michaelis-Menten constant (Km) was found to be 65 ± 3 µM, the catalytic constant (kcat) was 8 ± 1 s⁻¹ and the kcat/Km was 115000 ± 14000 M⁻¹ s⁻¹. Besides, in the data set “purified protein [3]”, the Km was 600 ± 60 µM, the kcat was 11 ± 1 s⁻¹ and the kcat/Km was found to be 17000 ± 1000 M⁻¹ s⁻¹.
